Source: the supplement of paper PMC12042874
± gives the uncertainty stated by the source.

Assay: amyloid nucleation score (Sup35N fusion, yeast selection) (log enrichment); library NNK2; higher = more nucleation; inactive = no reads after selection
In short: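 Using DiMSum, nucleation scores were taken as the log enrichment of output over input reads, centred on the mode score of non-aggregating sequences. The input and output reads came from Illumina sequencing of plasmid inserts, with sequences under 100 input reads excluded. The yeast were psi-negative, expressed Sup35N fused to peptides of 20 random codons, were induced with 100 μM copper sulfate for 24 hours, and were grown 7 days at 30°C on medium lacking adenine and uracil.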

Substance	amyloid nucleation score
ENSLVYI	inactive
EQSNSNPSHKY	inactive
ERDGSIMCSWTVSEHKSCGY	inactive
ERMFNMIALVRRAGGERNRT	4.43 ± 0.059
ERPWRRQRCAFKVSWVGADL	0.632 ± 0.19
ERYKCVYDNDRLMSLTSPDL	-0.429 ± 0.29
ERYLCVVDMEIKGRALRKRW	-0.144 ± 0.44
ESDMCFVWSIELVGLMFKLI	-0.979 ± 0.24
ESGCQGNSLKCVLSRCNGWR	3.45 ± 0.1
ESICAKWFMIDMNSTHWTGF	-0.614 ± 0.41
ESKIACCDMMLW	5.89 ± 0.062
ESLGEVKGYTSDPMVLVCFE	-0.167 ± 0.23
ESQWYVIDGAPFPTSGVLMS	0.013 ± 0.35
ETSANDLEPNLSVHHSGFSR	0.078 ± 0.32
EVGVV	0.622 ± 0.18
EVLRYGAVWMISRLVGLSLP	0.754 ± 0.31
EVPCWMTRSSMECNVDYWEG	0.797 ± 0.2
EVSHAIYRWTLEKYCWNCHV	0.09 ± 0.24
EVTILVGKGERLKRTYCSR	0.329 ± 0.2
EVVNWSR	-0.367 ± 0.35
EVWYTGYVCLWMYIAWINID	inactive
EWIWM	-0.129 ± 0.43
EWPMPWMFHRCSG	-0.138 ± 0.37
EYFMATE	-0.248 ± 0.35
EYGVAT	1.17 ± 0.18

Substance	amyloid nucleation score
EYRSDCMDYLGDVCWCPNIL	inactive
FACLYKTMQQLMGIKMCVKA	0.277 ± 0.4
FAGYECIE	-0.881 ± 0.37
FAKLKIIGSARKYK	-1.19 ± 0.61
FALREYGYLSSYYFCMGGPT	3.56 ± 0.094
FASRSCEFCEREY	3.2 ± 0.085
FASVLLCSIRRALGRVVRPL	0.144 ± 0.55
FASYRVY	0.305 ± 1
FAVNDCILCCRRSHWVLPYW	-0.334 ± 0.63
FAVTGFTWYMKIRCASIPLV	1.65 ± 0.21
FCAMGGPSRGLVNRWFGS	-0.746 ± 0.41
FCGDILSVT	0.695 ± 0.66
FCGFNDPGRD	inactive
FCKSVHKVHGHNVWCTLCAG	1.11 ± 0.18
FCKYANSGGCNHSMSDAV	-0.761 ± 1.1
FCLNATKAWFVLGVMYLDHW	-0.805 ± 0.35
FCNFGFIRNRSDDIGVSRGV	-1.07 ± 0.47
FCPFWDSWWGKPCRPAIDSA	0.683 ± 0.74
FCPVHSGISS	-0.578 ± 0.79
FCRETLRTRKAETLGTVNKE	-0.937 ± 0.78
FCREWDRSRQKG	0.508 ± 0.25
FCRGIHVTSIITTIDWYYSL	0.36 ± 0.62
FCRLLPSLCTTNLK	-0.663 ± 0.76
FCSHVGLVYCTYIMMRVSMR	5.501 ± 0.034
FCSSSVIYQKKLA	-0.782 ± 0.24

Substance	amyloid nucleation score
FCTLCFSLCQ	1.82 ± 0.23
FCTNSYSFMDGTSCWAELRA	0.594 ± 0.47
FCVISKGRHVSMRTTSGFLE	-0.834 ± 0.54
FCVLIGGCFFGNSK	6.157 ± 0.038
FDCGGCKNMGF	-1.74 ± 0.62
FDDRMCLCTIKQSK	-1 ± 0.78
FDHMWLSGQVQWFLNYTTSL	inactive
FDLCCMKYHSYHMQFI	-0.214 ± 1
FDPIRWLLNYIFMASTLYVE	-0.804 ± 0.44
FDRRVDV	-0.076 ± 0.29
FELIFELLLKKCALI	0.032 ± 0.54
FENIDGWRLFIIARRRAIGG	-1 ± 1
FESRFYHSVLTIVTLFTYPA	-0.025 ± 1.1
FFCRG	3.26 ± 0.084
FFDIVIAERLTVLHVSVVSK	4.59 ± 0.074
FFEFRCWVMKGFWPLRMKDM	0.414 ± 0.65
FFFVPSFDTLEHTLRVGLLR	inactive
FFIIGDCGVLSCPAGGQLWS	7.177 ± 0.037
FFIQLSIPERFTVRVLIRRR	inactive
FFIWLPYRSTTINRISPCWG	-1.94 ± 0.54
FFKISQSTTTEQLVYSCYSS	3.02 ± 0.095
FFMNNALFRGWG	2.97 ± 0.15
FFQFTTDSHCND	0.654 ± 0.8
FFQLSYNIQASSNNLMASVS	inactive
FFVLRHA	-0.513 ± 0.32

Substance	amyloid nucleation score
FFVMGRSGYSLVALKREKSI	inactive
FFYLRFAQWQLCRTFNAQGM	-0.184 ± 1.1
FFYQVWGNN	2.26 ± 0.11
FFYSVRVRPALIIC	inactive
FGDWWSI	-1.1 ± 0.63
FGFGRRKSKKWLVDLDPRR	inactive
FGFNCMGWYRDCAVTSTWGA	0.809 ± 0.31
FGLLWNNQSWLVARVSCSNL	-0.04 ± 0.36
FGMSCWFLFFASQFSVTNNC	-1.51 ± 0.76
FGNRLNFDILTTFVIKRWCM	-0.342 ± 0.76
FGSALFSIILH	5.607 ± 0.033
FGWGN	0.09 ± 0.51
FGWVINVNVRPTRFVTEGPV	6.54 ± 0.073
FGYKR	-0.828 ± 0.61
FGYVVVKRPSSMLLRASRDG	-0.619 ± 1
FHGRSATGISRLYLKRGCSG	0.761 ± 0.47
FHIDTIRTVRLAWYTTEHWQ	5.34 ± 0.07
FHIFQFVSLGFWSSEG	inactive
FHISYDTSS	-0.35 ± 1.1
FHSRFSMRPDDLWSQNARVW	0.028 ± 0.79
FHTLRVE	1.46 ± 0.3
FHVCWERSMLIRV	-0.559 ± 0.76
FHWYGTVVIYVYLLADVYRC	-0.153 ± 0.36
FICPMYESSRIVV	0.335 ± 0.64
FIFRMHAFNGIRLWCV	1.38 ± 0.22

Substance	amyloid nucleation score
FIFVLI	3.08 ± 0.11
FILRHQFCLRTLIYGPSIFF	7.465 ± 0.045
FIMSSVCMIRCNITCSHQPS	8.21 ± 0.035
FIMVQRLSCLVVQISRAGAC	3.79 ± 0.12
FINRPVKRKLNSSNIYICV	3.16 ± 0.14
FIRQKGYTVFLVCGNYVWMT	5.979 ± 0.056
FIRSIHCVKMDELAWLLSVS	0.252 ± 0.46
FIRWSLWR	-0.012 ± 1.1
FITNHK	inactive
FIYVSWRTWSEIVGMCFGVV	-1 ± 0.45
FKFGPMDSIKYMSANFISQC	-0.189 ± 0.64
FKICGTFDAFKKL	inactive
FKIDNGWYWCRTCGQNKGSS	-0.461 ± 0.56
FKNFFSYLLLGVPLIAAITW	-1.67 ± 0.41
FKSLVSMVENDWMS	-0.855 ± 0.44
FLCLLDRVIMTLFFRIAL	0.453 ± 0.65
FLDGAYSWLWLGSYIRGLSH	-0.262 ± 0.56
FLDWVLSD	inactive
FLGFI	-1.94 ± 1.1
FLLPSYERDSSYVAYF	-0.687 ± 0.79
FLLRHSSCEVIGC	0.665 ± 0.36
FLNKDGNIV	-0.022 ± 0.55
FLNNVVYRHCDSYLTGNCRN	5.151 ± 0.041
FLNPFNHREHPRVED	0.775 ± 0.62
FLNPYNFWLDFWYFLIDSMT	inactive

Substance	amyloid nucleation score
FLNSWQVGYLSCSSKLVACN	inactive
FLQRSRNMNCLRGHDFNSNG	0.053 ± 1.1
FLRVRP	-0.719 ± 0.29
FLSEFVRIGPYARS	inactive
FLSLIGKSRS	inactive
FLSVTFFRLIRCMAL	inactive
FLTYRLSNYYTPGKFCVYFK	inactive
FLVLVWSRCSNLFL	2.86 ± 0.14
FLVVGGT	-0.112 ± 0.21
FMCLHSARNVVMRMDVRVVL	4.93 ± 0.078
FMGFTISFFVRDFAPDLTKR	3.1 ± 0.064
FMITQSFSGT	-1.05 ± 0.41
FMLFRRGKNQRFRRLTDYKN	-2.44 ± 1.1
FMMTRKGIFELHFISRE	0.097 ± 1.1
FMRGLMARLCER	0.293 ± 0.4
FMSGGVVYSLMTGTR	0.388 ± 0.36
FMTGSFEENS	-0.945 ± 1.1
FNDRHVCHREKFSRELGFCS	-0.479 ± 1
FNFYKWYYIGLTAISFVYTV	-1.51 ± 1
FNIMIWA	inactive
FNIPGHSH	-1.51 ± 0.78
FNLLARMIVYGIVLSQGKTG	-0.01 ± 0.63
FNMTIVDISLYRFMNVLKRP	-0.907 ± 0.78
FNNMWYSFKQSLSACSVGRR	inactive
FNRDK	-0.512 ± 0.76

Substance	amyloid nucleation score
FNSCDAWYCMNSQVSRTTYL	-0.624 ± 0.41
FNSLGFRLTSCIDRVTLVLW	inactive
FNVEVRV	-0.379 ± 0.45
FPFKCTSQDSFFFNFKWSRR	3.25 ± 0.17
FPIYFFA	inactive
FPLDIKGKWDVGNMEGKVVE	0.486 ± 0.41
FPLVWA	0.416 ± 0.22
FPSCSRGLHFKGLWTWYFPT	-0.388 ± 1.1
FPTIDRQVFDVRR	-1.17 ± 0.41
FRALKMISDPSRHSVLL	-0.02 ± 0.34
FRDANKGCIEKFVVTCDFRM	0.003 ± 0.38
FRFTQDMDFRAQFDELSWRL	2 ± 0.28
FRGLVILNRNGVCDILEYGC	-0.58 ± 0.27
FRGVLWLSYLQDYRFDLYCM	-0.773 ± 0.61
FRIYA	0.388 ± 0.29
FRMFNVGFPDRPIMFRVDRL	0.41 ± 0.74
FRRNKNN	inactive
FRRVLCYKYYSFA	2.42 ± 0.14
FRSGRWRNGALSWHALATL	0.658 ± 0.52
FRSMFISWVM	-0.271 ± 1
FRSNSDLISFERASFR	-1.62 ± 0.55
FRTASLHVCLFLSG	-0.316 ± 0.61
FRVDYKMKCAFASHFSNSFY	inactive
FRVIWVVLVACQVSFHVRFV	-0.283 ± 1
